According to publication PMC4097884:

Assays:
[1] = target: 3K peptide peptide on I-Ab (mouse); test: SPR, equilibrium
[2] = target: FMRKA peptide, from an IA^b-random peptide baculovirus library peptide on I-Ab (mouse); test: SPR, equilibrium

Substance: J809.B5 αY31A
- Kd [1]: 32 µM
- Kd [2]: 22 µM
